{"source": "patent US20240327848"}
{"biological_target": "human serum albumin (HSA) (Homo sapiens) (UniProt P02768)", "experiment": "ELONA", "details": "Nap-dU at all positions marked 6 (n); bead-based ELISA, buffer SB18 (5 mM MgCl2), 37 C", "units": {"Kd": "nM"}}
{"sequence": "CAGGTCGAGCTGTACGCGTGTGTGACCTG [AL006]", "Kd": 19}
{"sequence": "CTCTCCCAGGTCGAGCTGTACGCGTGTGTGACCTG [AL003]", "Kd": 2.24}
{"sequence": "CTCTCCCAGGTCGAGCTGTACGCGTGTGTGACCTGACGTG [AL002]", "Kd": 20.7}
{"sequence": "TCCCAGGTCGAGCTGTACGCGTGTGTGACC [AL005]", "Kd": 14.7}
